Results taken from article PMC3084784 (PLoS ONE, 2011).

Assays:
[1] = target: HLA-A*0201 (heavy chain, β2m and peptide …) (human |  | human SARS-CoV); assay: SPR; settings: both partners purified
[2] = target: T1, HLA-G1 (heavy chain, β2m and peptide …) (human | , UniProt P17693-1 25-300; P61769 21-119); assay: SPR; BIAcore 3000; HLA-A*0201 (700 RU) or HLA-G1 (300 RU) immobilised by amine coupling on CM5 at pH 5.0, BSA as control surface; LILR injected; 25°C; 10 mM HEPES pH 7.4, 150 mM NaCl, 3 mM EDTA, 0.005% Tween-20; Kd by Scatchard analysis or nonlinear fit of a Langmuir isotherm; settings: both partners purified
T1 construct: HLA-G1 heavy chain, recombinant; β2-microglobulin (β2m), from inclusion bodies; also called non-classical HLAI; copies: + +

| Binder | Kd [1] [µM] | Kd [2] [µM] |
| --- | --- | --- |
| LILRA3 D1 (domain 1, residues 1-97) (domain or fragment) GPLPKPTLWAEPGSVITQGSPVTLRCQGSLETQEYHLYREKKTALWITRIPQELVKKGQFPILSITWEHAGRYCCIYGSHTVGLSESSDPLELVVTG | 40.1 |  |
| LILRB2 D1D2 (domain or fragment, human, LILRB2 (ILT4), domains 1 and 2 (D1D2); also called LILRB2 D1D2 monomer; ILT4 D1D2) GTIPKPTLWAEPDSVITQGSPVTLSCQGSLEAQEYRLYREKKSASWITRIRPELVKNGQFHIPSITWEHTGRYGCQYYSRARWSELSDPLVLVMTGAYPKPTLSAQPSPVVTSGGRVTLQCESQVAFGGFILCKEGEDEHPQCLNSQPHARGSSRAIFSVGPVSPNRRWSHRCYGYDLNSPYVWSSPSDLLELLVPG | 9.74 | 5.62 |
| LILRA3 D1D2 (domain 1 and domain 2, residues 1-197) (domain or fragment) GPLPKPTLWAEPGSVITQGSPVTLRCQGSLETQEYHLYREKKTALWITRIPQELVKKGQFPILSITWEHAGRYCCIYGSHTVGLSESSDPLELVVTGAYSKPTLSALPSPVVTSGGNVTIQCDSQVAFDGFILCKEGEDEHPQCLNSHSHARGSSRAIFSVGPVSPSRRWSYRCYGYDSRAPYVWSLPSDLLGLLVP | 28.5 |  |
